Test results taken from patent publication US20100216969A1 (BIONANOPHOTNICS A S, published 2010).
Bridge positions count the residues as written; N and C are the ends. Ends that are not written are not given here.

Molecular target: T1, Lysozyme (Sigma L-7651) (UniProt P00698 19-147)
T1 construct: Used as 2 uM solution in 25 mM Tris pH 7.0; also called model protein
Experiment: TIRF flow chamber, tryptophan fluorescence (excitation 295 nm, emission 350 nm); lysozyme loaded over the peptide-coated quartz slide with the light off, then Tween20/PBS and buffer rinses
Excerpt: A TIRF system (BioElectroSpec, Inc., Harrisburg, Pa.) coupled with a fluorescence spectrophotometer (PTI QM-2000 from Photon Technology Int., Lawrenceville, N.J.) with a 75W Xenon arc source was used. The PTI instrument excitation and emission slits were set at 6 nm. The flow chamber was comprised by a “sandwich” consisting of a TIRF quartz prism, a TIRF quartz slide (with the sample surface), a 10 μm polyureathane gasket (comprising the chamber thickness), and a back block with holes to channel the solution through the flow chamber. In this setup, the excitation light travels through the prism and slide, hits the interface between slide and solution, leading to total internal reflection at the interface. The reflected beam generates an evanescent electromagnetic field in the centre of the TIRF slide—this area of the TIRF slide serves thus as the sensor surface. Only fluorophores that are present at the surface and in close proximity of the surface (within the evanescent field) are excited and fluoresce.

T1 sequence (P00698 19-147 limits assumed): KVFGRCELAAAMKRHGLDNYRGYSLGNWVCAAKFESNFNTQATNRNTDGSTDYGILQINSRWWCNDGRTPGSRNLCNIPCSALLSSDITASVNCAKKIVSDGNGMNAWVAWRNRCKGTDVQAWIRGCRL

B1: synthetic disulphide-peptide KAMHAWGCGGGC-NH2 (SEQ ID NO 9) (peptide)
peptide: KAMHAWGCGGGC-NH2
modifications: disulfide 8-12; also: attached to aldehyde quartz surface via lysine amine and/or N-terminal amine (Schiff bond)
notes: Loaded at 10 uM onto an aldehyde-coated TIRF quartz slide; It stood in the assay as the surface coating; also called peptide linker
B1: no binding (tested: 2 µM).
